The experiment has as its target nicotinic acetylcholine receptors containing subunits α7, α9 and α10 of monocytic U937 cells (human (endogenous in U937)) (UniProt P36544).

B1: purified human endogenous C-reactive protein (natural protein)
chain: QTDMSRKAFVFPKESDTSYVSLKAPLTKPLKAFTVCLHFYTELSSTRGYSIFSYATKRQDNEILIFWSKDIGYSFTVGGSEILFEVPEVTVAPVHICTSWESASGIVEFWVDGKPRVRKSLKKGYTVGAEASIILGQEQDSFGGNFEGSQSLVGDIGNVNMWDFVLSPDEINTIYLGGPFSPNVLNWRALKYEVQGEVFTKPQLWP
B1 displayed an IC50 of eCRP for inhibition of BzATP-induced (100 µM) IL-1β release from LPS-primed U937 cells (the paper says this corresponds to about 40 nM pentameric CRP) of 4.9 µg/mL.

(Values after article PMC6077200.)
